Data taken from paper PMC2814137, “Crystal Structural and Functional Analysis of the Putative Dipeptidase from Pyrococcus horikoshii OT3” (Journal of Biophysics, 2009).

Columns and labels:
[1] = target: the molecule itself; test: AUC; sedimentation equilibrium, 20°C, 13 K rpm, three protein concentrations between 0.93 and 0.31 mg/mL, 20 mM Tris pH 8.0, 100 mM NaCl; monomer/dimer
[2] = substrate: CC(C)[C@H](N)C(=O)N1CCC[C@H]1C(=O)O; test: colorimetric ninhydrin prolidase assay; type: biochemical, Pyrococcus horikoshii; conditions: 1.2 mM CoCl2, 50 mM MOPS pH 7.0, 100°C, hydrochloride salt

B1: putative dipeptidase (Phdpd) from Pyrococcus horikoshii OT3 (enzyme, UniProt O58691 1-356, looked up)
chain: MRLEKFIHLLGERGFDGALISPGTNLYYLTGLRLHEVGERLAILAVSAEGDYRFLAPSLYENVVNNFPATFWHDGENPYAKLREILEELGISKGRILIEDTMRADWLIGIMKLGKFTFQPLSSLIKELRMIKDKEEVKMMEHASRIADKVFEEILTWDLIGMKERELALKIELLIRELSDGIAFEPIVASGENAANPHHEPGERKIRKGDIIILDYGARWKGYCSDITRTIGLGELDERLVKIYEVVKDAQESAFKAVREGIKAKDVDSRAREVISKAGYGEYFIHRTGHGLGLDVHEEPYIGPDGEVILKNGMTFTIEPGIYVPGLGGVRIEDDIVVDEGKGRRLTKAERELIIL
notes: putative dipeptidase / X-Pro dipeptidase (prolidase), Project ID PH0974, Pyrococcus horikoshii OT3; No tag is mentioned; the plasmid was made by the 'super-rare-cutter system' (manuscript in preparation); A selenomethionine-labelled crystal was used for MAD phasing only; also called PH0974; X-Pro dipeptidase (prolidase) of Project ID PH0974; source: E. coli BL21-CodonPlus (DE3)-RIL, purified …
- stoichiometry N [1]: 2
- Km [2]: 5.0 mM
- kcat [2]: 541 s⁻¹
